Test results as given in patent US20140274797.

Tested on: specific peptide sequence that is a substrate for MMP-9 (Lys-Gly-Pro-Arg-Ser-Leu-Ser-Gly-Lys)

metalloproteinase-9 (MMP-9)
cleavage of the donor/acceptor-labelled peptide (loss of FRET, colour change): Addition of MMP-9 cleaves the peptide separating donor and acceptor
